This is an account of results in patent publication US6972319B1, “Pituitary adenylate cyclase activating peptide (PACAP)receptor 3 (R3) agonists and their pharmacological methods of use” (priority 1999, dated 2005).

The nature of test [1]: Intraperitoneal glucose tolerance test (IPGTT), plasma glucose in rats. The note with it: 1 nmole/kg s.c., rats, FIG. 7. Format: in vivo, Wistar rats. The protocol:
Wistar rats are fasted overnight and then anesthetized with pentobarbital. The rats were eye-bled (zero time) and the peptide (in 1% human albumin) was injected into the tail vein. Five minutes later, 1 g/kg of glucose (in saline) was injected intraperitoneally, and the rats were eye-bled after 15, 30 and 60 minutes. Plasma glucose levels were determined using the Technicon Axon autoanalyzer, Bayer Diagnosics division of Bayer Corporation, Tarrytown N.Y., operated using Method No. SM4-2143F90“Glucose”.
Wistar rats were fasted overnight and then anesthetized with Pentobarbital. The rats were eye-bled (zero time) and the peptide (in 1% human albumin) was injected subcutaneously. Five minutes later, 1 g/kg of glucose (in saline) was injected intraperitoneally, and the rats were eye-bled after 30 minutes.
Plasma glucose: Data are expressed as % of vehicle of plasma glucose area under the curve after IPGTT (1 g/kg glucose) after treatment with 1 nmol/kg dose of the peptide. […] The present inventors have shown for the first time that this is because the effects of R2 and R3 on glucose tend to cancel each other out. […] Therefore, R3-selectivity appears to be a desirable attribute for medicaments which are to be employed in achieving blood glucose reduction, for treatment of type 2 diabetes.

Test [2] concerns the target T1, PACAP-R3 (human, UniProt P41587 24-438).
T1 sequence (looked up): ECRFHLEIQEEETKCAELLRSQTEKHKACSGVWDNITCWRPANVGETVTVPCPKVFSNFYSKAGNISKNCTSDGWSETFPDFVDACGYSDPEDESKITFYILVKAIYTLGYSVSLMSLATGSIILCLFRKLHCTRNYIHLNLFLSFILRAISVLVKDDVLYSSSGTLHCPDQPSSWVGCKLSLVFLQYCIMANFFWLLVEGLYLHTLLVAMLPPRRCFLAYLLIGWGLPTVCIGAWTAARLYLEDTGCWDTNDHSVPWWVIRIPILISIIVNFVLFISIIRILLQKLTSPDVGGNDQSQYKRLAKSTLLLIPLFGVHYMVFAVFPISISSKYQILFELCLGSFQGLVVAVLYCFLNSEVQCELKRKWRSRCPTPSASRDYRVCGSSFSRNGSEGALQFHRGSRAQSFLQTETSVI
The experiment in a line: cell-based or functional assay.

No end group written: not given here. A value given as a limit tells only on which side of the number the result lay.

In the case of “HAEGTFTSDV SSYLEGQAAK EFIAWLVKGR-NH2 (HAEGTFTSDVSSYLEGQAAKEFIAWLVKGR-NH2) [GLP-1, incretin hormone released from the intestinal L-cell, a known insulin secretagogue, reference compound]”, the “elevation of plasma glucose 30 minutes after IPGTT” value in test [1] is on record as “enhance glucose disposal”.

Take HSDGIFTDSYSRYRKQMAVKKYLAAKL-NH2 [PAC26]: in test [2], the “R3 EC50, nM (cAMP SPA)” value is 0.3 nM and the “R3 Selectivity” value came out at 1 ratio.

Take HSDGIFTDSYSEYRKQMAVKKYLAAVL-NH2 [PAC12]: in test [2], the “R3 EC50, nM (cAMP SPA)” value came out at 3 nM and the “R3 Selectivity” value was determined as 50 ratio.

In the case of HSDAVFTDNYTRLRKQMAAKKYLNSIQNRI [rR3P184], in test [2], the “R3 EC50, nM (cAMP SPA)” value was 0.37 nM and the “R3 Selectivity” value was 30 ratio.

Take HSDGIFTDSYSRYRKQMAVKEYLAAVL-NH2 [PAC21]: in test [2], the “R3 EC50, nM (cAMP SPA)” value was determined as 0.24 nM and the “R3 Selectivity” value was 10 ratio.

As to HSDAVFTDNYTRLRKQMARKKYLNSIRNRI [rR3P192], in test [2], the “R3 EC50, nM (cAMP SPA)” value was 0.6 nM and the “R3 Selectivity” value came to 60 ratio.

HSDAVFTDNYTRLRKQMARKKYLNSIPNRI [rR3P182]: in test [2], the “R3 EC50, nM (cAMP SPA)” value was 3.2 nM and the “R3 Selectivity” value amounted to 90 ratio.

Consider HSDAVFTDNYTRLRKQMASKKYLNSIPNRI [rR3P183], for which, in test [2], the “R3 EC50, nM (cAMP SPA)” value turned out to be 5.4 nM and the “R3 Selectivity” value is more than 30 ratio.

As to HSDAVFTDNYTRLRKQMASKKYLNSIKNRI [rR3P178], in test [2], the “R3 EC50, nM (cAMP SPA)” value stood at 0.75 nM and the “R3 Selectivity” value was 110 ratio.

With HSDAVFTDNYTRLRKQMAKKKYLNSIQNRI [rR3P186], in test [2], the “R3 EC50, nM (cAMP SPA)” value worked out at 1.6 nM and the “R3 Selectivity” value stood at 44 ratio.

In the case of HSDGIFTDSYSRYRKQKAVKKYLAAVL-NH2 [PAC17], in test [2], the “R3 EC50, nM (cAMP SPA)” value is 0.15 nM and the “R3 Selectivity” value turned out to be 1.6 ratio.

On to HSDAVFTDNYTRLRKQMAKKKYLNSIRNRI [rR3P191], for which, in test [2], the “R3 EC50, nM (cAMP SPA)” value is 2.7 nM and the “R3 Selectivity” value was more than 80 ratio.

With HSDGIFTDSYSRYRKQMAVKKYKAAVL-NH2 [PAC23], in test [2], the “R3 EC50, nM (cAMP SPA)” value is 13 nM and the “R3 Selectivity” value stood at 13 ratio.

For the molecule HSDAVFTDNYTRLRKQMASKKYLNSIRNRI [rR3P193], in test [2], the “R3 EC50, nM (cAMP SPA)” value worked out at 1.9 nM and the “R3 Selectivity” value was 110 ratio.

Regarding HSDAVFTDNYTRLRKQMARKKYLNSIQNRI [rR3P187], in test [2], the “R3 EC50, nM (cAMP SPA)” value amounted to 1.6 nM and the “R3 Selectivity” value is more than 80 ratio.

Turning to HSDAVFTDNYTRLRKQMAGKKYLNSIKNRI [rR3P175], in test [2], the “R3 EC50, nM (cAMP SPA)” value was 2.2 nM and the “R3 Selectivity” value worked out at 180 ratio.

Consider HSDGIFTDSYSRYEKQMAVKKYLAAVL-NH2 [PAC14], for which, in test [2], the “R3 EC50, nM (cAMP SPA)” value was determined as 1.6 nM and the “R3 Selectivity” value stood at 70 ratio.

For HSDGIFTDKYSRYRKQMAVKKYLAAVL-NH2 [PAC9], in test [2], the “R3 EC50, nM (cAMP SPA)” value was found to be 0.7 nM and the “R3 Selectivity” value was found to be 1 ratio.

For the molecule HSDGIFTDSYSRYRKQMAVKKKLAAVL-NH2 [PAC22], in test [2], the “R3 EC50, nM (cAMP SPA)” value was found to be 15 nM and the “R3 Selectivity” value was determined as 0.1 ratio.

As to HSDAVFTDNYTRLRKQMAKKKYLNSIKNRI [rR3P176], in test [2], the “R3 EC50, nM (cAMP SPA)” value turned out to be 2 nM and the “R3 Selectivity” value stood at 150 ratio.

With HSDAVFTDNYTRLRKQMARKKYLNSIKNRI [rR3P177], in test [2], the “R3 EC50, nM (cAMP SPA)” value was determined as 1.6 nM and the “R3 Selectivity” value stood at 70 ratio.

As to HSDAVFTDNYTRLRKQMAAKKYLNSIPNRI [rR3P179], in test [2], the “R3 EC50, nM (cAMP SPA)” value came out at 1.5 nM and the “R3 Selectivity” value is 150 ratio.

For HSDGIFTDSYSRYRKQMAKKKYLAAVL-NH2 [PAC19], in test [2], the “R3 EC50, nM (cAMP SPA)” value was determined as 0.4 nM and the “R3 Selectivity” value is 20 ratio.

In the case of HSDAVFTDNYTRLRKQMAGKKYLNSIRNRI [rR3P190], in test [2], the “R3 EC50, nM (cAMP SPA)” value amounted to 2.2 nM and the “R3 Selectivity” value came out at 100 ratio.

As to HSDGIFTDSYSRYRKQMAVKKYLAAVK-NH2 [PAC27], in test [2], the “R3 EC50, nM (cAMP SPA)” value turned out to be 1.1 nM and the “R3 Selectivity” value came to 1.4 ratio.

As for HSDGIFTDSYSRYRKKMAVKKYLAAVL-NH2 [PAC16], in test [2], the “R3 EC50, nM (cAMP SPA)” value worked out at 0.2 nM and the “R3 Selectivity” value turned out to be 1 ratio.

In the case of HSDAVFTDNYTRLRKQMASKKYLNSIQNRI [rR3P188], in test [2], the “R3 EC50, nM (cAMP SPA)” value was determined as 2.2 nM and the “R3 Selectivity” value turned out to be 70 ratio.

Take HSDAVFTDNYTRLRKQMAGKKYLNSIPNRI [rR3P180]: in test [2], the “R3 EC50, nM (cAMP SPA)” value turned out to be 6.7 nM and the “R3 Selectivity” value is more than 20 ratio.

HSDGIFTDSYSRYRKQMAVEKYLAAVL-NH2 [PAC20]: in test [2], the “R3 EC50, nM (cAMP SPA)” value stood at 0.7 nM and the “R3 Selectivity” value was 30 ratio.

For the molecule HSDGIFTDSKSRYRKQMAVKKYLAAVL-NH2 [PAC10], in test [2], the “R3 EC50, nM (cAMP SPA)” value amounted to 27 nM and the “R3 Selectivity” value amounted to 4 ratio.

With HSDAVFTDNYTRLRKQMAAKKYLNSIRNRI [rR3P189], in test [2], the “R3 EC50, nM (cAMP SPA)” value amounted to 0.04 nM and the “R3 Selectivity” value amounted to 30 ratio.

Take HSDGIFTDSYSRKRKQMAVKKYLAAVL-NH2 [PAC13]: in test [2], the “R3 EC50, nM (cAMP SPA)” value was found to be 0.5 nM and the “R3 Selectivity” value is 6 ratio.

Take HSDGIFTDSYSRYRKQMAVKKYLKAVL-NH2 [PAC24]: in test [2], the “R3 EC50, nM (cAMP SPA)” value turned out to be 0.2 nM and the “R3 Selectivity” value came out at 1.5 ratio.

With HSDGIFTDSYSRYREQMAVKKYLAAVL-NH2 [PAC15], in test [2], the “R3 EC50, nM (cAMP SPA)” value stood at 0.2 nM and the “R3 Selectivity” value came out at 12 ratio.

In the case of HSDAVFTDNYTRLRKQMAGKKYLNSIQNRI [rR3P185], in test [2], the “R3 EC50, nM (cAMP SPA)” value stood at 4.5 nM and the “R3 Selectivity” value amounted to 40 ratio.

As to HSDAVFTDNYTRLRKQMAKKKYLNSIPNRI [rR3P181], in test [2], the “R3 EC50, nM (cAMP SPA)” value is 5.1 nM and the “R3 Selectivity” value was found to be 50 ratio.

Turning to HSDAVFTDNYTRLRKQMAAKKYLNSIKNRI [rR3P174], in test [2], the “R3 EC50, nM (cAMP SPA)” value came to 0.2 nM and the “R3 Selectivity” value turned out to be 90 ratio.

Take HSDGIFTDSYKRYRKQMAVKKYLAAVL-NH2 [PAC11]: in test [2], the “R3 EC50, nM (cAMP SPA)” value is 140 nM and the “R3 Selectivity” value is 0.1 ratio.

As for HSDGIFTDSYSRYRKQMAVKKYLAKVL-NH2 [PAC25], in test [2], the “R3 EC50, nM (cAMP SPA)” value came to 0.04 nM and the “R3 Selectivity” value is 3 ratio.
